As usually defined, the IC50 is the point on the concentration scale where inhibition reaches its midpoint.

These results are taken from paper PMC5053586 (Cell Cycle, 2016).

Experiment [1] deals with T1, TbERK8 (extracellular-signal regulated kinase 8 homolog, Tb927.10.5140) (Trypanosoma brucei, UniProt Q38B88).
T1 sequence (Q38B88 1-442): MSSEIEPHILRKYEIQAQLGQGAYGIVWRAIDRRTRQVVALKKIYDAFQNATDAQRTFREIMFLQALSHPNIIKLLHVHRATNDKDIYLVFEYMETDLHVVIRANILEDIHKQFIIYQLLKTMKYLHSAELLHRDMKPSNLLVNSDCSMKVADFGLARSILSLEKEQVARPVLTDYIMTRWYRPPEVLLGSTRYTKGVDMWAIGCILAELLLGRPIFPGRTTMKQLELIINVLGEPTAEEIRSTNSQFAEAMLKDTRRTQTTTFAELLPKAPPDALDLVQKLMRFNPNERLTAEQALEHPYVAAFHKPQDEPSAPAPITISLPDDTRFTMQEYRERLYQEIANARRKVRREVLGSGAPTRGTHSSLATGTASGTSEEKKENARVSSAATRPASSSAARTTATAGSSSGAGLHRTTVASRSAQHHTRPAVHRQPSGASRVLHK
The experiment can be described thus: […]-ATP kinase assay with MBP substrate, eight-point dose response. The class given is biochemical.

For experiment [2], the target named is T1, TbERK8 (extracellular-signal regulated kinase 8 homolog, Tb927.10.5140). Kind of experiment: HTRF kinase assay. The format is biochemical.
For experiment [3], the target named is GST-TbERK8-PIP-box fusion protein (GSTtbE8-PIP) (Trypanosoma brucei). The experiment can be described thus: pull-down.
The target in experiment [4] is GST-bound canonical PIP-box from T. brucei aurora kinase 1 (GSTtbAUK1-PIP) (Trypanosoma brucei). The experiment can be described thus: pull-down.
Experiment [5] deals with GST-bound canonical PIP-box from T. brucei paraflagellar complex TbPFC19 (GSTtbPFC-PIP) (Trypanosoma brucei). The experiment can be described thus: pull-down.

Consider `Cn1cc(C2=C(c3cn(CCCSC(=N)N)c4ccccc34)C(=O)NC2=O)c2ccccc21` [Ro318220], for which, in experiment [1], the IC50 came out at 1.4 µM.

With `COc1ccccc1C(=O)c1cnc(NC2CCN(C(=O)Nc3ccccc3)CC2)nc1N` [SCYX5070], the IC50 in experiment [2] was ~1600 µM.

Take “hemagglutinin-tagged TbPCNA (wt-TbPCNAHA) (natural protein)”: in experiment [3], the fold pulled down against GST-Ctrl beads came to 5 fold.

With “recombinant wt-TbPCNA6H (natural protein)”, the fold pulled down against the TbERK8 PIP-box motif in experiment [4] was determined as 5 fold; in experiment [5], 3 fold.
